Test results published in paper PMC10786891, “Massively parallel profiling of RNA-targeting CRISPR-Cas13d”.

T1: EsCas13d, nuclease-dead (Eubacterium siraeum, UniProt B0MS50, R295A;H300A;R849A;H854A)
T1 sequence: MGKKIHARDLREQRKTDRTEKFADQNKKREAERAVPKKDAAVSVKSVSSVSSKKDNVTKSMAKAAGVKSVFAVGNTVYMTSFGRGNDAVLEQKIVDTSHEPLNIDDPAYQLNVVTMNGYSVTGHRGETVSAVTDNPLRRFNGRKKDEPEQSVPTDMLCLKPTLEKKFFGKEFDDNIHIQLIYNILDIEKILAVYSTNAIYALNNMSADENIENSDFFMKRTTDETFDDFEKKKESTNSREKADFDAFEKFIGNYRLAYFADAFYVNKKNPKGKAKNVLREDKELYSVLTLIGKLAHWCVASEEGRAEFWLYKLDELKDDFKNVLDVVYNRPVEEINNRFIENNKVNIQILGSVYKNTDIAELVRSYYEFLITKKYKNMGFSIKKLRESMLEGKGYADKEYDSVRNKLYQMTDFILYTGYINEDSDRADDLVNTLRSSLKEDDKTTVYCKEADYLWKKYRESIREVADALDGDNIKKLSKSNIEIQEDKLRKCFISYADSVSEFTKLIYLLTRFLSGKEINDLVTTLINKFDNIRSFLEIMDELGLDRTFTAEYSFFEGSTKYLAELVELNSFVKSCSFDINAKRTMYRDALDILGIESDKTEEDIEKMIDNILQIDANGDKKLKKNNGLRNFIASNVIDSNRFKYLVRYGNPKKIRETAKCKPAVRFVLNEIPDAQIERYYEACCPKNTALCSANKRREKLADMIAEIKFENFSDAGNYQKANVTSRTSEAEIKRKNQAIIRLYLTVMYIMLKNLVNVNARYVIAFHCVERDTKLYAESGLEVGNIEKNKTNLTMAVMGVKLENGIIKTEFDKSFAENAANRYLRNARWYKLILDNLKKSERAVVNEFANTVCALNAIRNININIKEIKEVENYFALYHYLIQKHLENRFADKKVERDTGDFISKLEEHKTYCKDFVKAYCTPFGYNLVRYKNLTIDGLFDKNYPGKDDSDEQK


Molecular target: T1, EsCas13d, nuclease-dead
Experiment: crRNA (strand 1, pre-loaded); Mg2+; 40 mM Tris-HCl pH 7.5, 150 mM NaCl, 6 mM MgCl2, 1 mM DTT, 0.1% Tween-20, 0.2 mg/ml BSA; 25 C; 10 min per concentration, then washed
Details: tags: His6-TwinStrep-SUMO cleaved; N-terminal SNAP kept (SNAP-Surface 488); label: 3' end held by stalled T7 RNA polymerase

| Binder | Kd [nM] |
| --- | --- |
| target 2 MT 5'PFS UAG 3'PFS CCG (mixed) RNA 1: CACCCGUGCAAAAUUGCAGGGGUCUAAAACCUUCUCCAAAUUGUUUCAUCCU RNA 2: GGGAAUGGAUCCACAUCUACGAAUUCUAGAGGAUGAAACAAUUUGGAGAAGCCGAGAUCGGAAGAGCACACGU | 2.56 ± 0.17 |
| target 2 MT 5'PFS CUC 3'PFS UUC (mixed) RNA 1: CACCCGUGCAAAAUUGCAGGGGUCUAAAACCUUCUCCAAAUUGUUUCAUCCU RNA 2: GGGAAUGGAUCCACAUCUACGAAUUCCUCAGGAUGAAACAAUUUGGAGAAGUUCAGAUCGGAAGAGCACACGU | 6.5 ± 1.6 |
| target 2 MT 5'PFS UUA 3'PFS UGC (mixed) RNA 1: CACCCGUGCAAAAUUGCAGGGGUCUAAAACCUUCUCCAAAUUGUUUCAUCCU RNA 2: GGGAAUGGAUCCACAUCUACGAAUUCUUAAGGAUGAAACAAUUUGGAGAAGUGCAGAUCGGAAGAGCACACGU | 33 ± 9 |
| target 2 MT 5'PFS CAG 3'PFS ACC (mixed) RNA 1: CACCCGUGCAAAAUUGCAGGGGUCUAAAACCUUCUCCAAAUUGUUUCAUCCU RNA 2: GGGAAUGGAUCCACAUCUACGAAUUCCAGAGGAUGAAACAAUUUGGAGAAGACCAGAUCGGAAGAGCACACGU | 5.5 ± 1.1 |
| target 2 MT 5'PFS GAU 3'PFS UCA (mixed) RNA 1: CACCCGUGCAAAAUUGCAGGGGUCUAAAACCUUCUCCAAAUUGUUUCAUCCU RNA 2: GGGAAUGGAUCCACAUCUACGAAUUCGAUAGGAUGAAACAAUUUGGAGAAGUCAAGAUCGGAAGAGCACACGU | 21 ± 7 |
| target 2 MT 5'PFS ACA 3'PFS AUC (mixed) RNA 1: CACCCGUGCAAAAUUGCAGGGGUCUAAAACCUUCUCCAAAUUGUUUCAUCCU RNA 2: GGGAAUGGAUCCACAUCUACGAAUUCACAAGGAUGAAACAAUUUGGAGAAGAUCAGAUCGGAAGAGCACACGU | 6.2 ± 1.3 |
| target 2 MT 5'PFS AAG 3'PFS ACC (mixed) RNA 1: CACCCGUGCAAAAUUGCAGGGGUCUAAAACCUUCUCCAAAUUGUUUCAUCCU RNA 2: GGGAAUGGAUCCACAUCUACGAAUUCAAGAGGAUGAAACAAUUUGGAGAAGACCAGAUCGGAAGAGCACACGU | ~27 |
| target 2 MT 5'PFS CAC 3'PFS ACG (mixed) RNA 1: CACCCGUGCAAAAUUGCAGGGGUCUAAAACCUUCUCCAAAUUGUUUCAUCCU RNA 2: GGGAAUGGAUCCACAUCUACGAAUUCCACAGGAUGAAACAAUUUGGAGAAGACGAGAUCGGAAGAGCACACGU | 2.8 ± 0.8 |
| target 2 MT 5'PFS CAG 3'PFS UGA (mixed) RNA 1: CACCCGUGCAAAAUUGCAGGGGUCUAAAACCUUCUCCAAAUUGUUUCAUCCU RNA 2: GGGAAUGGAUCCACAUCUACGAAUUCCAGAGGAUGAAACAAUUUGGAGAAGUGAAGAUCGGAAGAGCACACGU | 6.8 ± 1.4 |
| target 2 MT 5'PFS CAG 3'PFS UGC (mixed) RNA 1: CACCCGUGCAAAAUUGCAGGGGUCUAAAACCUUCUCCAAAUUGUUUCAUCCU RNA 2: GGGAAUGGAUCCACAUCUACGAAUUCCAGAGGAUGAAACAAUUUGGAGAAGUGCAGAUCGGAAGAGCACACGU | 4.7 ± 1.2 |
| target 2 MT 5'PFS AAG 3'PFS ACU (mixed) RNA 1: CACCCGUGCAAAAUUGCAGGGGUCUAAAACCUUCUCCAAAUUGUUUCAUCCU RNA 2: GGGAAUGGAUCCACAUCUACGAAUUCAAGAGGAUGAAACAAUUUGGAGAAGACUAGAUCGGAAGAGCACACGU | 9 ± 1.3 |
| target 2 MT 5'PFS AAG 3'PFS ACA (mixed) RNA 1: CACCCGUGCAAAAUUGCAGGGGUCUAAAACCUUCUCCAAAUUGUUUCAUCCU RNA 2: GGGAAUGGAUCCACAUCUACGAAUUCAAGAGGAUGAAACAAUUUGGAGAAGACAAGAUCGGAAGAGCACACGU | 5 ± 0.9 |
| target 2 MT 5'PFS CUC 3'PFS UUA (mixed) RNA 1: CACCCGUGCAAAAUUGCAGGGGUCUAAAACCUUCUCCAAAUUGUUUCAUCCU RNA 2: GGGAAUGGAUCCACAUCUACGAAUUCCUCAGGAUGAAACAAUUUGGAGAAGUUAAGAUCGGAAGAGCACACGU | 4.9 ± 0.7 |
| target 2 MT 5'PFS UUA 3'PFS UGU (mixed) RNA 1: CACCCGUGCAAAAUUGCAGGGGUCUAAAACCUUCUCCAAAUUGUUUCAUCCU RNA 2: GGGAAUGGAUCCACAUCUACGAAUUCUUAAGGAUGAAACAAUUUGGAGAAGUGUAGAUCGGAAGAGCACACGU | 23.1 ± 3 |
| target 2 MT 5'PFS GAU 3'PFS UCG (mixed) RNA 1: CACCCGUGCAAAAUUGCAGGGGUCUAAAACCUUCUCCAAAUUGUUUCAUCCU RNA 2: GGGAAUGGAUCCACAUCUACGAAUUCGAUAGGAUGAAACAAUUUGGAGAAGUCGAGAUCGGAAGAGCACACGU | 15.2 ± 1.5 |
| target 2 MT 5'PFS UAU 3'PFS GCC (mixed) RNA 1: CACCCGUGCAAAAUUGCAGGGGUCUAAAACCUUCUCCAAAUUGUUUCAUCCU RNA 2: GGGAAUGGAUCCACAUCUACGAAUUCUAUAGGAUGAAACAAUUUGGAGAAGGCCAGAUCGGAAGAGCACACGU | 43 ± 20 |
| target 2 MT 5'PFS UAG 3'PFS CCA (mixed) RNA 1: CACCCGUGCAAAAUUGCAGGGGUCUAAAACCUUCUCCAAAUUGUUUCAUCCU RNA 2: GGGAAUGGAUCCACAUCUACGAAUUCUAGAGGAUGAAACAAUUUGGAGAAGCCAAGAUCGGAAGAGCACACGU | 5.1 ± 0.4 |
| target 2 MT 5'PFS GAU 3'PFS UCC (mixed) RNA 1: CACCCGUGCAAAAUUGCAGGGGUCUAAAACCUUCUCCAAAUUGUUUCAUCCU RNA 2: GGGAAUGGAUCCACAUCUACGAAUUCGAUAGGAUGAAACAAUUUGGAGAAGUCCAGAUCGGAAGAGCACACGU | ~80 |
| target 2 MT 5'PFS AUU 3'PFS UCC (mixed) RNA 1: CACCCGUGCAAAAUUGCAGGGGUCUAAAACCUUCUCCAAAUUGUUUCAUCCU RNA 2: GGGAAUGGAUCCACAUCUACGAAUUCAUUAGGAUGAAACAAUUUGGAGAAGUCCAGAUCGGAAGAGCACACGU | 16.7 ± 1.8 |
| target 2 MT 5'PFS ACA 3'PFS AUA (mixed) RNA 1: CACCCGUGCAAAAUUGCAGGGGUCUAAAACCUUCUCCAAAUUGUUUCAUCCU RNA 2: GGGAAUGGAUCCACAUCUACGAAUUCACAAGGAUGAAACAAUUUGGAGAAGAUAAGAUCGGAAGAGCACACGU | 5.7 ± 1.1 |
| target 2 MT 5'PFS CUC 3'PFS UUU (mixed) RNA 1: CACCCGUGCAAAAUUGCAGGGGUCUAAAACCUUCUCCAAAUUGUUUCAUCCU RNA 2: GGGAAUGGAUCCACAUCUACGAAUUCCUCAGGAUGAAACAAUUUGGAGAAGUUUAGAUCGGAAGAGCACACGU | 5.3 ± 0.7 |
| target 2 MT 5'PFS CAC 3'PFS ACA (mixed) RNA 1: CACCCGUGCAAAAUUGCAGGGGUCUAAAACCUUCUCCAAAUUGUUUCAUCCU RNA 2: GGGAAUGGAUCCACAUCUACGAAUUCCACAGGAUGAAACAAUUUGGAGAAGACAAGAUCGGAAGAGCACACGU | 2.5 ± 0.6 |
| target 1 C2G,G17C (mixed) RNA 1: CACCCGUGCAAAAAUGCAGGGGUCUAAAACUGAGCGGAUAACCUCUCUAUGG RNA 2: GGGAAUGGAUCCACAUCUACGAAUUCGUACCAUACAGAGGUUAUCCGCUGACCGAGAUCGGAAGAGCACACGU | 50 ± 6 |
| target 1 U11A,A14G (mixed) RNA 1: CACCCGUGCAAAAAUGCAGGGGUCUAAAACUGAGCGGAUAACCUCUCUAUGG RNA 2: GGGAAUGGAUCCACAUCUACGAAUUCGUACCAUAGAGGGGAUAUCCGCUCACCGAGAUCGGAAGAGCACACGU | 43 ± 4 |
